Reference: patent US20190367613A1 (JOUNCE THERAPEUTICS, published 2019)

T1: Human ICOS (human, UniProt Q9Y6W8 21-199)
T1 sequence: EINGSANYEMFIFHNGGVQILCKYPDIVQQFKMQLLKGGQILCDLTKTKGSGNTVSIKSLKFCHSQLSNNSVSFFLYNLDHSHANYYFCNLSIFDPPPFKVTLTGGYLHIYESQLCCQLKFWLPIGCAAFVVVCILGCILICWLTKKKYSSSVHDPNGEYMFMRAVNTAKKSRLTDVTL


Legend:
Human ICOS [1] = target: T1, Human ICOS; assay: cell-based or functional assay
Human ICOS [2] = target: T1, Human ICOS; assay: intracellular flow cytometry on permeabilized human PBMCs, streptavidin PE detection

Binder	intracellular IFNγ production in CD4+ T cells (flow cytometry, after tetanus toxoid stimulation) (Human ICOS [1])	intracellular TNFα production in CD4+ T cells (flow cytometry, after tetanus toxoid stimulation) (Human ICOS [1])	binding result (Human ICOS [2])
JTX-2011 (antibody, V domains shown) VH: EVQLVESGGGLVQPGGSLRLSCAASGFTFSDYWMDWVRQAPGKGLVWVSNIDEDGSITEYSPFVKGRFTISRDNAKNTLYLQMNSLRAEDTAVYYCTRWGRFGFDSWGQGTLVTVSS VL: DIVMTQSPDSLAVSLGERATINCKSSQSLLSGSFNYLTWYQQKPGQPPKLLIFYASTRHTGVPDRFSGSGSGTDFTLTISSLQAEDVAVYYCHHHYNAPPTFGPGTKVDIKR	4 fold	4 fold	
M13 anti-ICOS detection antibody (antibody, V domains shown, also called 2M13; biotinylated M13 anti-ICOS detection antibody) VH: EVQLQQSGAELVRPGAVVKLSCKASGFDIKDYYMHWVQQRPEQGLEWIGWIDPENGNAVYDPQFQGKASITADTSSNTAYLQLSSLTSEDTAVYYCASDYYGSKGYLDVWGAGTTVTVSS VL: QIVLTQSPTIMSASPGEKVTITCSASSSVSYMHWFQQKPGTSPKLWIYSTSNLASGVPARFGGSRSGTSYSLTISRMEAEDAATYYCQQRSSYPFTFGSGTKLEIK			binds
